Data from paper PMC2141740 (The Journal of Cell Biology, 1998).

Biological target: T1, HA-tagged human TGF-β type I receptor (TβRI-HA) (human, UniProt P36897 34-503)
T1 sequence (looked up): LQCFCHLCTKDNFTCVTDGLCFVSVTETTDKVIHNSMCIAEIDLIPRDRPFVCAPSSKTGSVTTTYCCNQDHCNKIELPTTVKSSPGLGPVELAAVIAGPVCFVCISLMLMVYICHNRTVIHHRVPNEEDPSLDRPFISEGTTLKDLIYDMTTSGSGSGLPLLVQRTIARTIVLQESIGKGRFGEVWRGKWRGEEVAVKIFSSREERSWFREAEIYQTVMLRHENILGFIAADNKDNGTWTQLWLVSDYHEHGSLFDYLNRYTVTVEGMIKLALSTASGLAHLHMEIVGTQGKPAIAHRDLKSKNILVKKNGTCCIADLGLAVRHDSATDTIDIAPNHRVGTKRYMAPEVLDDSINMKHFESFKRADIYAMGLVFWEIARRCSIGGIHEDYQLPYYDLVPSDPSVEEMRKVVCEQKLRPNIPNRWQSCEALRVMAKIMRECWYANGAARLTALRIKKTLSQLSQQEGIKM
Test: antibody-mediated immunofluorescence copatching

stoichiometry N: 2
B1: myc-tagged human TGF-β type I receptor (TβRI-myc) (receptor, UniProt P36897 34-503, looked up)
chain: T1 sequence (looked up)
